Test results from US20240141039A1 (AGENUS, published 2024).
One block for each binder: values may come before it.

Experiments:
[1] = molecular target: T1, full-length human FcγRIIIa variant V/V expressed on CHO cells (human, UniProt P08637 17-254); experiment: flow cytometry on CHO cells expressing human FcγRIIIa variant V/V, PE anti-human IgG Fc detection
T1 construct: whole, on cells; also called human FcγRIIIa-CHO (variant V/V); human FcγRIIIa (V/V) CHO cells
Method: (§1) The ability of anti-TIGIT×CD96 multispecific molecules to bind to variant V/V or variant F/F of human FcγRIIIa expressed on the surface of CHO cells was assessed. Briefly, CHO cells were transfected with a vector encoding full-length human FcγRIIIa (human FcγRIIIa-CHO) variant V/V or F/F, and clones stably expressing FcγRIIIa (variant V/V or variant F/F) were selected.
(§2) For the antibody binding assay, a frozen aliquot of human FcγRIIIa-CHO (variant V/V or variant F/F) cells was thawed at 37° C. and then transferred to a tube containing DPBS supplemented with 0.5% Bovine Serum Albumin and 0.05% Sodium Azide (FACS Buffer). Cells were centrifuged at 300 g for five minutes. The supernatant was discarded, and cells resuspended in FACS buffer were seeded in a 96-well U-bottom tissue culture plate at a density of 2×10⁵ cells per well in 50 μL. In a separate microplate, a 2× concentrated intermediate stock of each multispecific molecule was prepared. […] After a 30-minute incubation on ice, the cells were washed twice with cold FACS Buffer, and the cells were analyzed by flow cytometry (BD LSR Fortessa Flow Cytometer). The data were analyzed using the FlowJo software by sequentially gating the FSC-A vs. SSC-A, and SSC-H vs. SSC-A. Mean fluorescence intensity (MFI) values for PE were calculated, and the data were plotted by GraphPad Prism software.

[2] = molecular target: T1, full-length human FcγRIIIa variant V/V …; experiment: flow cytometry, human FcγRIIIa (V/V) CHO cells, geomean of 2 experiments
Method: as §1, §2

[3] = molecular target: T2, full-length ECD of cynomolgus monkey TIGIT (His-tagged) (cynomolgus monkey); experiment: SPR Biacore T200, Protein A capture, 1:1 model, experiment #1
T2 construct: also called His-tagged cynomolgus monkey TIGIT; cyno TIGIT extracellular domain
Method: (§3) Briefly, surface plasmon resonance experiments were performed using a Biacore T200 instrument, and the association rate (kₐ), dissociation rate (kd), and dissociation constant (KD) were calculated from each experiment using a 1:1 binding model with Biacore T200 Evaluation Software.
(§4) Multispecific molecules were captured using a 30-sec injection at a flow rate of 10 μl/min to reach about 350 resonance units (RUs). […] The sensor chip was regenerated between cycles with two 30-sec injections of 10 mM glycine, pH 1.5. Sensorgrams were evaluated and fit to a simple Langmuir 1:1 interaction model using the global data analysis option of BIAevaluation 3.0 software. Data quality was verified by visually inspecting deviations and curve fitting, and by evaluating the parameters of Rₘₐₓ, Chi2, and Tc.

[4] = molecular target: T3, full-length isoform 2 ECD of human CD96 with a C89S mutation (His-tagged) (human, UniProt P40200 22-519); experiment: as above
T3 construct: also called His-tagged isoform 2 of human CD96 with a C89S mutation; human CD96 extracellular domain isoform 2 C89S
T3 sequence: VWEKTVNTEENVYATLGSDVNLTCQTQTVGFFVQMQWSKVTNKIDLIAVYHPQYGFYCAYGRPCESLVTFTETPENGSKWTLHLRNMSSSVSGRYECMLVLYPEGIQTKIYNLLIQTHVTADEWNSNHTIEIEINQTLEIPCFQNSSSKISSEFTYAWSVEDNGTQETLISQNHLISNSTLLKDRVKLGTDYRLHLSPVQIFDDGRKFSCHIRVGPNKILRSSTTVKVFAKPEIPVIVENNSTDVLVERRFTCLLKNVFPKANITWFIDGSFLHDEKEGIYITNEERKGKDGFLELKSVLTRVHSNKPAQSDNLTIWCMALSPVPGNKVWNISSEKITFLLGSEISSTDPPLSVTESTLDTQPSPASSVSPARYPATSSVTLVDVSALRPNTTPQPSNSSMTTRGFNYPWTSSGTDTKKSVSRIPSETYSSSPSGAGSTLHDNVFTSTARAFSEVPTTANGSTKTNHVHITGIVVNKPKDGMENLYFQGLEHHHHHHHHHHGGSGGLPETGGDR
Method: as §3, §4

T1 sequence (P08637 other isoform, or with tags, fused parts or gaps mutant limits assumed): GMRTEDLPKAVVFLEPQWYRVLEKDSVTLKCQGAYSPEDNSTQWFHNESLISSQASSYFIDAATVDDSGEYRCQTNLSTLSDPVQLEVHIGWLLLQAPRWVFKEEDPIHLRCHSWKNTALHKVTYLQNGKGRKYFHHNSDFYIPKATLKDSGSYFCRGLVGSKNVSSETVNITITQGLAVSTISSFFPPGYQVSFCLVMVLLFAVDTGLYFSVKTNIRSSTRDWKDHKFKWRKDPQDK

EC50 (read off the curve) [1]: ~0.3 µg/mL
EC50 [2]: 0.189 µg/mL
Kd [3]: 4.78 nM
koff [3]: 0.00132 s⁻¹
kon [3]: 277000 M⁻¹ s⁻¹
Kd [4]: 79 nM
koff [4]: 0.00125 s⁻¹
kon [4]: 15800 M⁻¹ s⁻¹
B1: anti-TIGIT×CD96 multispecific molecule BA123 (bispecific antibody, human IgG1, kappa, lambda)
heavy 1: QVQLVQSGAEVKKPGASVKVSCKASGYTFTSYGISWVRQAPGQGLEWMGWISAYNANTNYAQKLQGRVTMTTDTSTSTAYMELRSLRSDDTAVYYCARSAGVLGGMDVWGRGTLVTVSSASTKGPSVFPLAPSSKSTSGGTAALGCLVKDYFPEPVTVSWNSGALTSGVHTFPAVLQSSGLYSLSSVVTVPSSSLGTQTYICNVNHKPSNTKVDKRVEPKSCDKTHTCPPCPAPELLGGPDVFLFPPKPKDTLMISRTPEVTCVVVDVSHEDPEVKFNWYVDGVEVHNAKTKPREEQYNSTYRVVSVLTVLHQDWLNGKEYKCKVSNKALPAPIEKTISKAKGQPREPQVYTLPPSREEMTKNQVSLSCAVKGFYPSDIAVEWESNGQPENNYKTTPPVLDSDGSFFLVSKLTVDKSRWQQGNVFSCSVMHEALHNHYTQKSLSLSPG
light 1: not shown
heavy 2: EVQLVQSGAEVKKPGSSVKVSCKASGYTFASYGISWVRQAPGQGLEWMGGITPFFNRVDVAEKFQGRVTITADKSTSTAYIELSSLRSEDTAVYYCARDLRRGGVGDAFDIWGRGTLVTVSSASTKGPSVFPLAPSSKSTSGGTAALGCLVKDYFPEPVTVSWNSGALTSGVHTFPAVLQSSGLYSLSSVVTVPSSSLGTQTYICNVNHKPSNTKVDKRVEPKSCDKTHTCPPCPAPELLGGPDVFLFPPKPKDTLMISRTPEVTCVVVDVSHEDPEVKFNWYVDGVEVHNAKTKPREEQYNSTYRVVSVLTVLHQDWLNGKEYKCKVSNKALPLPEEKTISKAKGQPREPQVYTLPPSREEMTKNQVSLWCLVKGFYPSDIAVEWESNGQPENNYKTTPPVLDSDGSFFLYSKLTVDKSRWQQGNVFSCSVMHEALHNHYTQKSLSLSPG
light 2: QSALTQPRSVSGSPGQSVTISCTGTSPDVGSHAYRSWYQQHPGKAPKLMIYEVSYRPSGVSNRFSGSKSGNTASLTISGLQAEDEADYYCSSYPPSSATVFGAGTKLTVLGQPKAAPSVTLFPPSSEELQANKATLVCLISDFYPGAVTVAWKADSSPVKAGVETTTPSKQSNNKYAASSYLSLTPEQWKSHRSYSCQVTHEGSTVEKTVAPTEC
notes: copies: 1 + 1 + 1 + 1

EC50 (read off the curve) [1]: ~0.2 µg/mL
EC50 [2]: 0.148 µg/mL
Kd [3]: 4.29 nM
koff [3]: 0.00126 s⁻¹
kon [3]: 294000 M⁻¹ s⁻¹
Kd [4]: 19.6 nM
koff [4]: 0.00116 s⁻¹
kon [4]: 59200 M⁻¹ s⁻¹
B2: anti-TIGIT×CD96 multispecific molecule BA127 (bispecific antibody, human IgG1, kappa, lambda)
heavy 1: QVQLVQSGAEVKKPGASVKVSCKASGYTFTTYALHWVRQAPGQRLEWMGWINTGSGDTKYSQKFQGRVTITRDTSASTAYMELSSLRSEDTAVYYCARSLGVYYGMDVWGQGTLVTVSSASTKGPSVFPLAPSSKSTSGGTAALGCLVKDYFPEPVTVSWNSGALTSGVHTFPAVLQSSGLYSLSSVVTVPSSSLGTQTYICNVNHKPSNTKVDKRVEPKSCDKTHTCPPCPAPELLGGPDVFLFPPKPKDTLMISRTPEVTCVVVDVSHEDPEVKFNWYVDGVEVHNAKTKPREEQYNSTYRVVSVLTVLHQDWLNGKEYKCKVSNKALPAPIEKTISKAKGQPREPQVYTLPPSREEMTKNQVSLSCAVKGFYPSDIAVEWESNGQPENNYKTTPPVLDSDGSFFLVSKLTVDKSRWQQGNVFSCSVMHEALHNHYTQKSLSLSPG
light 1: not shown
heavy 2: B1 heavy 2
light 2: B1 light 2
notes: Anti-CD96 arm = BA139, anti-TIGIT arm = BA150; copies: 1 + 1 + 1 + 1
